The record followed here is the domain aggregation screens of Martell et al. (2025).

The nature of this data set: soluble fraction after stress (log2 fold change); higher = more stays soluble; pooled small domains, quantitative proteomics. The settings on record: stress: pH 4. The procedure, abridged: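 Following acid stress at pH 4, the amount of each small protein domain still soluble was measured in pooled custom libraries by high-throughput quantitative proteomics. Its fold change, on a log2 scale, is higher when more of the domain stayed soluble. This fold change is taken as a measure of aggregation propensity.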
For the sequence “HMAADWTAIKLAYVNGGMSMRELAQRFHVGAAGLMKRAAKEGWEAERQQNSAKVSNAAQMLIN”, the “soluble fraction (log2)” value came out at 0.125.
As for “HMAAEEAFPGGRIVQNAEENRLQILFDEIPGEDVRAALKSHGFRWSPKNKAWQRQLTQNAEYDARRILGI”, the “soluble fraction (log2)” value was -0.033.
The figure for “HMAAEELTVDKILTAQSFGVTAEAILAKVNDPANTVATLTQADVDRLRAAGVPEGVVTALQARAPQ” is -0.155; for “HMAAENAVGARVKALREAMDLSLRDLSERSGVSPTMLSQVERGSTSPTLAVAEKIAAGLDLSLSQLLRL” it is 0.124.
With “HMAAGADEATTVPNVSGDTLNQAIKSLKAEGLGYMLSGAGARVRDQMPEPGAEMTKGSVVMLYMDGDAEVD” the figure was 0.399; with “HMAAGVESLTEKEFAVASLVGGGASNREIAERLAMSERTVKSHLSSIFRKMDVRDRVQLALAMND”, -0.0425.
With “HMAAIPATVDEETYRRLKPMLKQYGILYHEFKPLRSGKKGAVELIFMEKDLALVQELLSRLKKEK” the figure was -0.0159.
On to “HMAAIPEQVSEEVVSAVKASGIDPGKVTKEQWTSLLKGRRTALGSSSGKLFMLSKAPVGYTLKAVNA”, for which the “soluble fraction (log2)” value was -0.000834.
The figure for “HMAAMDMFVKLDALDAELTEQLKALPAEPDDARVERGLALLTDYDHRIKALLTEIFGGENDFDKVL” is -2.25; for “HMAAPPPLSDYRNMQEAEHIRNILLQHHGNVRRAAAALELSRPYLYQKMKQLGINIAELRELSLSHSS” it is 0.161.
On to “HMAASEAESIRILLSEGVDRVHLRKPQSAEADMRRLIEALPPELYPRLTLQDHLHLAGEYGT”, for which the “soluble fraction (log2)” value is -0.162.
With “HMAATGPLTPREAEIARLAAGHLSNRQIAEQLVVSERTVENHLYRIFIKLAVTGRDDLAAALAATEQ” the figure was -1.17.
As for “HMAATNVKVPDLKGWDYNNAVGKYGDKLSFVKKSIYSDSVSKGIIIYNARVGETVAQGTTIEVTVSLGPKG”, the “soluble fraction (log2)” value worked out at 0.0127.
The figure for “HMAAVPYQVKITTEDLRIRTGPGTNHDFTGQYTGKGVFTIVEESEGSGAPIWGRLKSGAGWIGIDPSWSVR” is -0.524; for “HMADAGQTTAATELKQAPNAGSATISQLSAGQTLQIGTRQGAWYQVKTPQGEGWVRMLSVRLQ” it is 0.0688; for “HMADEGFRQTVLAVLARWESKIHHGQYNALKAKVMNGNWSSFVKQVVKFQGKFIHPDAAKELLGLFG” it is -1.17.
The figure for “HMADFIKEIKTNNPRQLLKSILSSFMPRALILELEMLLWNDLKSKPIGEWSNTQIENVGKLLNNWILKPAA” is 0.164.
With “HMADIWDLLRSEYKLTETDVRMLTDMLPDELMNDFRSEVLALRDRMNRYKVNNPKSYVVTSLKNFIIQHTP” the figure was -0.787; with “HMADKNIIGVLSAADNLGKVRITTANGEKYIITVPDGLSDIVKTYWEEEVSVKYVIEKRRKILVDIDG”, -0.47; with “HMADLIIMSSDATEKQVDKVINKIKNMGFNVNISKGTEKTIIGIIGDTRGISDEVFKIMPGVIEVISILRD”, -0.38.
“HMADLIVFTTDANKEKKVDDETYFYLDVVSDGKLVENYELTEKQYNYIKDLGVGEYVYNEKGKLDSYTAFT”: the “soluble fraction (log2)” value is -1.12.
Regarding “HMADPLQLLEQQRQDYIQAVTEYLNSHPNAKPIWDVMKKDAGYGDMKLTDIPLGILKKLYITLT”, the “soluble fraction (log2)” value was -0.137.
For “HMADRVFGHIPGVAVGSIFPDRRSLSQTGVHRPTQAGISGNKTDGADSIVVSGGYRDDRDYGDLIIYTG”, the “soluble fraction (log2)” value was -0.746.
For “HMADTFVMPDLVYRRYEPVRGYFERGGFHMGAVKFEPYEGISDGTILRQNPLPGHPLRRRDVISLVVAAS”, the “soluble fraction (log2)” value is -0.464.
Turning to “HMADYYETLGVERTASEEDIKRAYRKMSRKYHPDIAGPEFEEKFKEVNTAYEVLSDPDKRRMYDAGVDPND”, the “soluble fraction (log2)” value was 0.0648.
The figure for “HMADYYSILGLTKNATDIEIKSAFRKLAKIYHPDKNPDPNARVLFEHILKAYDTLINPHSRRRYDSL” is 0.22.
With “HMAEELELFHRLISVTGVGPKGALGFLSQLKPQEIILAILSDDVKTLSKAPGVGRKTAQRVILELKDKF” the figure was -0.828; with “HMAEGPYSGKKVEKYPGGMEKRETMYSEGKLTRVTEFHQSGQKKMEVKVDANGQWKRLYWDNNGNPT”, -0.086; with “HMAEIIVHEINRHLGESDEPVEFPEERREEAVAELLKNFHNDDAFRKMDDGKYEVALDGEAVREAARSLLA”, -0.256.
The figure for “HMAELTTVQAADILHVSRPFLIKLLDEGQIPYHRVGKHRRIRMEDVMNYKRAIDQQREAVLDQLVAEA” is 0.014; for “HMAEMLQDVLNMLSAKDREILVRYYYYYESVKQVAAEMQMSESAVKMRMSRARKKMQQELIDKG” it is -0.704; for “HMAEPAEDLLSLEGMDKGLAYQLASNGVVTREDLAELATDDLLEIREMDAEQAAALIMKAREHWFEAEQQ” it is -1.94.
Consider “HMAEPEALLAMAQRILGEEVAQSLFQGAAREQGKEGYLPDPTPAFLDALEARLSGSVGAATAHAMISQLVG”, for which the “soluble fraction (log2)” value is -0.473.
The figure for “HMAEPSTSYTQFMDQAKEGKIKRVDVQGRTLTVTPTEGATYKITAPGDLWMVEDLRKAGVQVYGQP” is 0.076.
Take “HMAEPYDERKVMEQMIPKGKNTIVAHLGHLKDHGETGYLQEALSYLRERESELGFDLKEVRALVHN”: the “soluble fraction (log2)” value was -0.223.
With “HMAEQVLHQKLAARRKELNSLVAQVARVRGIPHSHVHSGLRREAGGPPLAQATTDQVEARISLARKWLRA” the figure was -0.000969.
In the case of “HMAERLQARIDAPGVRLDKALAETFPTLSRARLQALLADGAVTRDGQTVSNGSAKAQPGLYVVALPPVA”, the “soluble fraction (log2)” value came to 0.316.
With “HMAESNQIQLSDVREALNMIGPASWLDLVHYLDTGKGRGGQRLRRMLKSLSRSGEIELVARGTYQITDN” the figure was -0.742; with “HMAEVALFVNGSDVNLRSGPGQESTRVIGSLNLGDEVRIKSQNGQWREVYVPKTRQVGWVAHWLLSEAPP”, -0.527; with “HMAEVPDLRNKTQQEAEAELTNHNLKLGNVTEEYSATVEAGRVISQSTSYGTKVLEGSSVDITISKGPEPT”, 0.156.
The figure for “HMAEWLFDARKIPDEVMNYLRRIAVQAIEEKHYSPELVADLLGISRSSIYDWLNWYRNGGEEDLDTRKA” is -0.543; for “HMAFAQMAQEAAKGKDDFNDLRQEMEAVIKEQPHILLMAQFGQNPYEIAYQEAKRRKAQDQQQQQ” it is -0.805.
On to “HMAFGTGTVTASSLRVREDASTSAATLDTLSKGSKVSVLADEQDGFYKVQIGEQVGYMSAEYLDVTE”, for which the “soluble fraction (log2)” value is -0.269.
With “HMAFKNGLLQTSKKVTLVRKVDGVTMRFDSLRAASVFLGRNKGYLSNVIKNGRTLDNYEIVVGE” the figure was 0.0346; with “HMAFRIGGFVQEGSVVRQQDGGTVRFEVTDTAHSVPVTYKGSLPDLFKEGKGVVAQGKLMNGTFVADQVLA”, -0.186; with “HMAGATDTVRNLLERQIREGELLPGQRLPTEPELAARLGVSRNSLREALQSLEDSGLIVKRHGIGTFVTE”, 0.22.
The figure for “HMAGLELVVTREQAGRTVKSLLRGELGISTALMGRLKRTGTGLTVNGTRVFTNAVLREGDRLAVDLDAAE” is -0.0613; for “HMAGLKERLFYFIEYKGLTVQSFEKTVGLSNGAVSKMGDNTRRSTIDKISNFFGDLNKNWLLTGEGEMLI” it is -0.638; for “HMAGRKMMVMANNLSVRKSANSLSEKLADLSRGDTVEYISSTNGWNKVRYKGQIGYVSSYYLKDTGEEVE” it is 0.216.
The figure for “HMAGTKRAENIEIQKLTEVLEARLDSVGFFWPDHKAESMIMTLRNMISRLPLTEADVRVFHGIIKSLADK” is -0.727; for “HMAGTWQDQGNGQWKYQNDDGSYATGWIEDSGKSYYLDANGIMLANTTTPDGKQVGPDGALIP” it is -1.69; for “HMAHETIDVAALRVGMFVQLDLGWLSHPFPLSSFRISSEDQIATIRALGLKRVRWSSEQSDS” it is -2.26.
For “HMAHPRTHEALNPLWEKYLGPNAGNDFFLSGGTSLKALMFLKDLEKTLNKRIAIHAFFKDPTYEHVVSD”, the “soluble fraction (log2)” value is -0.467.
The figure for “HMAHTGGNTLTREKAVSVRSASDALLFEIHWNETPREDILSTREEKVDGKTYSIITIRTGKGREDHYYLLS” is 0.295; for “HMAHYPGKVNNELVEFIRSEQRKTPHMTLTGLNRKLQRTYDLTLSESTVRKLVEAETILPLAREPD” it is 0.217.
For “HMAIDLPVTTVNGKDYYYYDVQPKETIFSLSQRLGISREEIISYNPGVDGGLKAYTRLYFPVESGL”, the “soluble fraction (log2)” value is -0.0117.
The figure for “HMAIDLSLIPGNLLRELHGAVEDGDMYRIRELIRSISAVDEKVGKELLLLAERYDYERLLELVND” is -1.03; for “HMAIDWVQIKAEYISGTMSASKLAEKHGVSVYAIRKRSGKERWQELRRQNQSETANKIAEKI” it is -0.0638.
With “HMAIDYYQTLINLGYKLQDRGDYWQTSAIHRGGDNPTALQIYKNTGVWKDYVSGGGFKPFKALVEKSD” the figure was -0.35; with “HMAIELTPRQLDIIELVRKHAPITGEQIAELLGVTRPSIRSDLGLLVMLGYIDAKPKVGYFAGPRM”, -0.893.
“HMAIGSRLKVTTDATNLNIRSTPSTEGDIVGKAAHHEIVTLVEKTDDSWWKIKTNDGEEGYAYAQYLSPV”: the “soluble fraction (log2)” value is 0.0608.
As for “HMAIIQSNNIFKSQKEIVDEILVELDIPKDKWNFFHMLISSGYKDEFDTNRIYEIIQTNYNMMDR”, the “soluble fraction (log2)” value was -0.693.
With “HMAILDTALDVLSMNLKDNYTSFQILRQAAIAGKIAFNLTEKNPLGGVIEVELTGDDLETWIEAATW” the figure was -0.697; with “HMAIMISINAKGEVAWNDQIISLDDLAQRFNAAGQQAQKPTVQLRADKESRYDMVAQVMSRASEAGLSDIA”, -0.966; with “HMAIRLIKASREFNVGISTIVEFLEKKGHAIDSDPNSKIPDELYQLIEKEFQTEGSVKKAAKQI”, -0.335.
With “HMAITLEVAKKHLEMWLEAESEVAINQSYTIGGKSFTRANLAEIRKQIEYWSNKVAELENLA” the figure was -0.247; with “HMAITYETKVISGVNLRSAPSTSASVYQLIPKGENIHVVQKVNDYWLKVQTKDGKTGYISASSKYTNYIG”, 0.0502.
With “HMAIWAVFYKNEPFNLKSFNSLTSYPGPKYKKTSFSNPGHALNLAKKLNLTFGTEDFQVVKLTQGTIV” the figure was 0.00875.
